Here are results for 27 molecules from paper PMC10786891, “Massively parallel profiling of RNA-targeting CRISPR-Cas13d”.

T1: EsCas13d, nuclease-dead (Eubacterium siraeum, UniProt B0MS50, R295A;H300A;R849A;H854A)
T1 sequence: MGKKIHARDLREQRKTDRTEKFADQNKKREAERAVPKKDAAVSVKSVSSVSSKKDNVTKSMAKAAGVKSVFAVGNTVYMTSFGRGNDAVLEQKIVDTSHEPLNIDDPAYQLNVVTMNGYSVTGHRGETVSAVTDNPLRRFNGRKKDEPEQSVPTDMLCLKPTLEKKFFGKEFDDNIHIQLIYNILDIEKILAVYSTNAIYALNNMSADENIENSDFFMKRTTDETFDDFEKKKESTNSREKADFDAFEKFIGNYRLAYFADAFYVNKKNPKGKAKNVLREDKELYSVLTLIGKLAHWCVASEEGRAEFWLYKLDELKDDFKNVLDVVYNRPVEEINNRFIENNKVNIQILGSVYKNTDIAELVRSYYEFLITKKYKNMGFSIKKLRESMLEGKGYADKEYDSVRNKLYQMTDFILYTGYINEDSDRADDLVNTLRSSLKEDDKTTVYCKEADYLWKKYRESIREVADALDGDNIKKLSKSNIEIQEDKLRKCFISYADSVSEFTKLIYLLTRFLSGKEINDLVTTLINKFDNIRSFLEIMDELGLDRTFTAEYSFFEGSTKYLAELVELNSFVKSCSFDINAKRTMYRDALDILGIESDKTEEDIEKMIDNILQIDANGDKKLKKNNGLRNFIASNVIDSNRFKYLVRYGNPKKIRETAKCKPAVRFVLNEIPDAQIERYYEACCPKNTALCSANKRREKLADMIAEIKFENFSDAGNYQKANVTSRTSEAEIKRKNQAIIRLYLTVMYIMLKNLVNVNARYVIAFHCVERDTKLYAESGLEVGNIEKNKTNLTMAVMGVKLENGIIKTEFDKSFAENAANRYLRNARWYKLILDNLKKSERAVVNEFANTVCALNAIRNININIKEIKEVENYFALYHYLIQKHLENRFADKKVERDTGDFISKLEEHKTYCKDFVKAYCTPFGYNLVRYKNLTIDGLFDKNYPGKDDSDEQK

B1: target 1 MT 5'PFS CAC 3'PFS UUU (mixed)
RNA 1: CACCCGUGCAAAAAUGCAGGGGUCUAAAACUGAGCGGAUAACCUCUCUAUGG
RNA 2: GGGAAUGGAUCCACAUCUACGAAUUCCACCCAUAGAGAGGUUAUCCGCUCAUUUAGAUCGGAAGAGCACACGU
B2: target 1 MT 5'PFS CCC 3'PFS AUU (mixed)
RNA 1: CACCCGUGCAAAAAUGCAGGGGUCUAAAACUGAGCGGAUAACCUCUCUAUGG
RNA 2: GGGAAUGGAUCCACAUCUACGAAUUCCCCCCAUAGAGAGGUUAUCCGCUCAAUUAGAUCGGAAGAGCACACGU
B3: target 1 MT 5'PFS ACG 3'PFS AUA (mixed)
RNA 1: CACCCGUGCAAAAAUGCAGGGGUCUAAAACUGAGCGGAUAACCUCUCUAUGG
RNA 2: GGGAAUGGAUCCACAUCUACGAAUUCACGCCAUAGAGAGGUUAUCCGCUCAAUAAGAUCGGAAGAGCACACGU
B4: target 1 MT 5'PFS UGC 3'PFS AUU (mixed)
RNA 1: CACCCGUGCAAAAAUGCAGGGGUCUAAAACUGAGCGGAUAACCUCUCUAUGG
RNA 2: GGGAAUGGAUCCACAUCUACGAAUUCUGCCCAUAGAGAGGUUAUCCGCUCAAUUAGAUCGGAAGAGCACACGU
B5: target 1 MT 5'PFS GAG 3'PFS UCC (mixed)
RNA 1: CACCCGUGCAAAAAUGCAGGGGUCUAAAACUGAGCGGAUAACCUCUCUAUGG
RNA 2: GGGAAUGGAUCCACAUCUACGAAUUCGAGCCAUAGAGAGGUUAUCCGCUCAUCCAGAUCGGAAGAGCACACGU
B6: target 1 insC 3' of 12,insC 3' of 12 (mixed)
RNA 1: CACCCGUGCAAAAAUGCAGGGGUCUAAAACUGAGCGGAUAACCUCUCUAUGG
RNA 2: GGGAAUGGAUCCACAUCUACGAAUUCGUACCAUAGAGAGGCCUUAUCCGCUCACCGAGAUCGGAAGAGCACACGU
B7: target 1 MT 5'PFS ACG 3'PFS AUG (mixed)
RNA 1: CACCCGUGCAAAAAUGCAGGGGUCUAAAACUGAGCGGAUAACCUCUCUAUGG
RNA 2: GGGAAUGGAUCCACAUCUACGAAUUCACGCCAUAGAGAGGUUAUCCGCUCAAUGAGAUCGGAAGAGCACACGU
B8: target 1 MT 5'PFS UGC 3'PFS AUC (mixed)
RNA 1: CACCCGUGCAAAAAUGCAGGGGUCUAAAACUGAGCGGAUAACCUCUCUAUGG
RNA 2: GGGAAUGGAUCCACAUCUACGAAUUCUGCCCAUAGAGAGGUUAUCCGCUCAAUCAGAUCGGAAGAGCACACGU
B9: target 1 MT 5'PFS ACG 3'PFS AUC (mixed)
RNA 1: CACCCGUGCAAAAAUGCAGGGGUCUAAAACUGAGCGGAUAACCUCUCUAUGG
RNA 2: GGGAAUGGAUCCACAUCUACGAAUUCACGCCAUAGAGAGGUUAUCCGCUCAAUCAGAUCGGAAGAGCACACGU
B10: target 1 MT 5'PFS CCU 3'PFS CAA (mixed)
RNA 1: CACCCGUGCAAAAAUGCAGGGGUCUAAAACUGAGCGGAUAACCUCUCUAUGG
RNA 2: GGGAAUGGAUCCACAUCUACGAAUUCCCUCCAUAGAGAGGUUAUCCGCUCACAAAGAUCGGAAGAGCACACGU
B11: target 1 insA 3' of 11,insC 3' of 8 (mixed)
RNA 1: CACCCGUGCAAAAAUGCAGGGGUCUAAAACUGAGCGGAUAACCUCUCUAUGG
RNA 2: GGGAAUGGAUCCACAUCUACGAAUUCGUACCAUAGAGAGGUAUAUCCCGCUCACCGAGAUCGGAAGAGCACACGU
B12: target 1 MT 5'PFS CCC 3'PFS AUG (mixed)
RNA 1: CACCCGUGCAAAAAUGCAGGGGUCUAAAACUGAGCGGAUAACCUCUCUAUGG
RNA 2: GGGAAUGGAUCCACAUCUACGAAUUCCCCCCAUAGAGAGGUUAUCCGCUCAAUGAGAUCGGAAGAGCACACGU
B13: target 1 U8C,U19C (mixed)
RNA 1: CACCCGUGCAAAAAUGCAGGGGUCUAAAACUGAGCGGAUAACCUCUCUAUGG
RNA 2: GGGAAUGGAUCCACAUCUACGAAUUCGUACCACAGAGAGGUUACCCGCUCACCGAGAUCGGAAGAGCACACGU
B14: target 1 MT 5'PFS CCU 3'PFS CAG (mixed)
RNA 1: CACCCGUGCAAAAAUGCAGGGGUCUAAAACUGAGCGGAUAACCUCUCUAUGG
RNA 2: GGGAAUGGAUCCACAUCUACGAAUUCCCUCCAUAGAGAGGUUAUCCGCUCACAGAGAUCGGAAGAGCACACGU
B15: target 1 MT 5'PFS CCU 3'PFS CAC (mixed)
RNA 1: CACCCGUGCAAAAAUGCAGGGGUCUAAAACUGAGCGGAUAACCUCUCUAUGG
RNA 2: GGGAAUGGAUCCACAUCUACGAAUUCCCUCCAUAGAGAGGUUAUCCGCUCACACAGAUCGGAAGAGCACACGU
B16: target 1 MT 5'PFS GAG 3'PFS UCU (mixed)
RNA 1: CACCCGUGCAAAAAUGCAGGGGUCUAAAACUGAGCGGAUAACCUCUCUAUGG
RNA 2: GGGAAUGGAUCCACAUCUACGAAUUCGAGCCAUAGAGAGGUUAUCCGCUCAUCUAGAUCGGAAGAGCACACGU
B17: target 1 MT 5'PFS CCU 3'PFS CAU (mixed)
RNA 1: CACCCGUGCAAAAAUGCAGGGGUCUAAAACUGAGCGGAUAACCUCUCUAUGG
RNA 2: GGGAAUGGAUCCACAUCUACGAAUUCCCUCCAUAGAGAGGUUAUCCGCUCACAUAGAUCGGAAGAGCACACGU
B18: target 1 MT 5'PFS GGC 3'PFS AGC (mixed)
RNA 1: CACCCGUGCAAAAAUGCAGGGGUCUAAAACUGAGCGGAUAACCUCUCUAUGG
RNA 2: GGGAAUGGAUCCACAUCUACGAAUUCGGCCCAUAGAGAGGUUAUCCGCUCAAGCAGAUCGGAAGAGCACACGU
B19: target 1 MT 5'PFS CAA 3'PFS ACC (mixed)
RNA 1: CACCCGUGCAAAAAUGCAGGGGUCUAAAACUGAGCGGAUAACCUCUCUAUGG
RNA 2: GGGAAUGGAUCCACAUCUACGAAUUCCAACCAUAGAGAGGUUAUCCGCUCAACCAGAUCGGAAGAGCACACGU
B20: target 1 MT 5'PFS CUG 3'PFS AGG (mixed)
RNA 1: CACCCGUGCAAAAAUGCAGGGGUCUAAAACUGAGCGGAUAACCUCUCUAUGG
RNA 2: GGGAAUGGAUCCACAUCUACGAAUUCCUGCCAUAGAGAGGUUAUCCGCUCAAGGAGAUCGGAAGAGCACACGU
B21: target 1 MT 5'PFS GCA 3'PFS CUC (mixed)
RNA 1: CACCCGUGCAAAAAUGCAGGGGUCUAAAACUGAGCGGAUAACCUCUCUAUGG
RNA 2: GGGAAUGGAUCCACAUCUACGAAUUCGCACCAUAGAGAGGUUAUCCGCUCACUCAGAUCGGAAGAGCACACGU
B22: target 1 MT 5'PFS AUG 3'PFS AUG (mixed)
RNA 1: CACCCGUGCAAAAAUGCAGGGGUCUAAAACUGAGCGGAUAACCUCUCUAUGG
RNA 2: GGGAAUGGAUCCACAUCUACGAAUUCAUGCCAUAGAGAGGUUAUCCGCUCAAUGAGAUCGGAAGAGCACACGU
B23: target 1 MT 5'PFS AUG 3'PFS AUU (mixed)
RNA 1: CACCCGUGCAAAAAUGCAGGGGUCUAAAACUGAGCGGAUAACCUCUCUAUGG
RNA 2: GGGAAUGGAUCCACAUCUACGAAUUCAUGCCAUAGAGAGGUUAUCCGCUCAAUUAGAUCGGAAGAGCACACGU
B24: target 1 MT 5'PFS UGC 3'PFS AUA (mixed)
RNA 1: CACCCGUGCAAAAAUGCAGGGGUCUAAAACUGAGCGGAUAACCUCUCUAUGG
RNA 2: GGGAAUGGAUCCACAUCUACGAAUUCUGCCCAUAGAGAGGUUAUCCGCUCAAUAAGAUCGGAAGAGCACACGU
B25: target 1 MT 5'PFS GCA 3'PFS CUG (mixed)
RNA 1: CACCCGUGCAAAAAUGCAGGGGUCUAAAACUGAGCGGAUAACCUCUCUAUGG
RNA 2: GGGAAUGGAUCCACAUCUACGAAUUCGCACCAUAGAGAGGUUAUCCGCUCACUGAGAUCGGAAGAGCACACGU
B26: target 1 MT 5'PFS UGC 3'PFS AUG (mixed)
RNA 1: CACCCGUGCAAAAAUGCAGGGGUCUAAAACUGAGCGGAUAACCUCUCUAUGG
RNA 2: GGGAAUGGAUCCACAUCUACGAAUUCUGCCCAUAGAGAGGUUAUCCGCUCAAUGAGAUCGGAAGAGCACACGU
B27: target 1 MT 5'PFS GAG 3'PFS UCA (mixed)
RNA 1: CACCCGUGCAAAAAUGCAGGGGUCUAAAACUGAGCGGAUAACCUCUCUAUGG
RNA 2: GGGAAUGGAUCCACAUCUACGAAUUCGAGCCAUAGAGAGGUUAUCCGCUCAUCAAGAUCGGAAGAGCACACGU

For this data set, the target named is T1, EsCas13d, nuclease-dead. As to the kind of experiment: crRNA (strand 1, pre-loaded); Mg2+; 40 mM Tris-HCl pH 7.5, 150 mM NaCl, 6 mM MgCl2, 1 mM DTT, 0.1% Tween-20, 0.2 mg/ml BSA; 25 C; 10 min per concentration, then washed. Conditions: tags: His6-TwinStrep-SUMO cleaved; N-terminal SNAP kept (SNAP-Surface 488); label: 3' end held by stalled T7 RNA polymerase.
Broadly, the Kd is the concentration at which binding is half-saturated. The low end stands for a tighter complex, the high end for a looser complex. In turn, B1 came in with a Kd of 7.15 ± 2.4 nM.

B2: the Kd is ~8 nM.

Take B3: the Kd is 16.5 ± 6.5 nM. As to B4, the affinity, expressed as Kd, was 18.6 ± 5.1 nM.

For B5, binding was put at a Kd of 55.5 ± 26.5 nM. Molecule B6 returned a Kd of 18.3 ± 1.3 nM. Molecule B7 displayed a Kd of 45 ± 18.5 nM. Under B8 stands 52.5 ± 23 nM; under B9, ~24.5 nM. Consider B10, for which the equilibrium dissociation constant (Kd) turned out to be 55 ± 19 nM. Turning to B11, the Kd is 16.7 ± 1.1 nM. Molecule B12 had a Kd of 31 ± 14 nM.

Take B13: binding was put at a Kd of 41.1 ± 2.3 nM. For the molecule B14, the Kd is ~26 nM. In turn, B15 showed a Kd of 15.2 ± 5.15 nM. The molecule B16 yielded a Kd of 29 ± 9 nM. Take B17: the Kd is 13.5 ± 5.5 nM. In turn, B18 yielded a Kd of 9.95 ± 1.75 nM. Regarding B19, the affinity, expressed as Kd, was 14.8 ± 5.05 nM.

Molecule B20 registered a Kd of 66.5 ± 33 nM. Under B21 stands ~19.5 nM; under B22, 49 ± 18 nM. As for B23, the Kd was found to be 11.4 ± 2.5 nM.

Molecule B24 registered a Kd of 16.5 ± 6 nM. Under B25 stands 11.9 ± 3.35 nM; under B26, ~55.5 nM. Regarding B27, the equilibrium dissociation constant (Kd) was ~47.5 nM.
